IntAct's records for PubMed 16799563

B1: Mediator of RNA polymerase II transcription subunit 15 (Homo sapiens), Q96RN5 (parent)
chain: MDVSGQETDWRSTAFRQKLVSQIEDAMRKAGVAHSKSSKDMESHVFLKAKTRDEYLSLVARLIIHFRDIHNKKSQASVSDPMNALQSLTGGPAAGAAGIGMPPRGPGQSLGGMGSLGAMGQPMSLSGQPPPGTSGMAPHSMAVVSTATPQTQLQLQQVALQQQQQQQQFQQQQQAALQQQQQQQQQQQFQAQQSAMQQQFQAVVQQQQQLQQQQQQQQHLIKLHHQNQQQIQQQQQQLQRIAQLQLQQQQQQQQQQQQQQQQALQAQPPIQQPPMQQPQPPPSQALPQQLQQMHHTQHHQPPPQPQQPPVAQNQPSQLPPQSQTQPLVSQAQALPGQMLYTQPPLKFVRAPMVVQQPPVQPQVQQQQTAVQTAQAAQMVAPGVQMITEALAQGGMHIRARFPPTTAVSAIPSSSIPLGRQPMAQVSQSSLPMLSSPSPGQQVQTPQSMPPPPQPSPQPGQPSSQPNSNVSSGPAPSPSSFLPSPSPQPSQSPVTARTPQNFSVPSPGPLNTPVNPSSVMSPAGSSQAEEQQYLDKLKQLSKYIEPLRRMINKIDKNEDRKKDLSKMKSLLDILTDPSKRCPLKTLQKCEIALEKLKNDMAVPTPPPPPVPPTKQQYLCQPLLDAVLANIRSPVFNHSLYRTFVPAMTAIHGPPITAPVVCTRKRRLEDDERQSIPSVLQGEVARLDPKFLVNLDPSHCSNNGTVHLICKLDDKDLPSVPPLELSVPADYPAQSPLWIDRQWQYDANPFLQSVHRCMTSRLLQLPDKHSVTALLNTWAQSVHQACLSAA
partner: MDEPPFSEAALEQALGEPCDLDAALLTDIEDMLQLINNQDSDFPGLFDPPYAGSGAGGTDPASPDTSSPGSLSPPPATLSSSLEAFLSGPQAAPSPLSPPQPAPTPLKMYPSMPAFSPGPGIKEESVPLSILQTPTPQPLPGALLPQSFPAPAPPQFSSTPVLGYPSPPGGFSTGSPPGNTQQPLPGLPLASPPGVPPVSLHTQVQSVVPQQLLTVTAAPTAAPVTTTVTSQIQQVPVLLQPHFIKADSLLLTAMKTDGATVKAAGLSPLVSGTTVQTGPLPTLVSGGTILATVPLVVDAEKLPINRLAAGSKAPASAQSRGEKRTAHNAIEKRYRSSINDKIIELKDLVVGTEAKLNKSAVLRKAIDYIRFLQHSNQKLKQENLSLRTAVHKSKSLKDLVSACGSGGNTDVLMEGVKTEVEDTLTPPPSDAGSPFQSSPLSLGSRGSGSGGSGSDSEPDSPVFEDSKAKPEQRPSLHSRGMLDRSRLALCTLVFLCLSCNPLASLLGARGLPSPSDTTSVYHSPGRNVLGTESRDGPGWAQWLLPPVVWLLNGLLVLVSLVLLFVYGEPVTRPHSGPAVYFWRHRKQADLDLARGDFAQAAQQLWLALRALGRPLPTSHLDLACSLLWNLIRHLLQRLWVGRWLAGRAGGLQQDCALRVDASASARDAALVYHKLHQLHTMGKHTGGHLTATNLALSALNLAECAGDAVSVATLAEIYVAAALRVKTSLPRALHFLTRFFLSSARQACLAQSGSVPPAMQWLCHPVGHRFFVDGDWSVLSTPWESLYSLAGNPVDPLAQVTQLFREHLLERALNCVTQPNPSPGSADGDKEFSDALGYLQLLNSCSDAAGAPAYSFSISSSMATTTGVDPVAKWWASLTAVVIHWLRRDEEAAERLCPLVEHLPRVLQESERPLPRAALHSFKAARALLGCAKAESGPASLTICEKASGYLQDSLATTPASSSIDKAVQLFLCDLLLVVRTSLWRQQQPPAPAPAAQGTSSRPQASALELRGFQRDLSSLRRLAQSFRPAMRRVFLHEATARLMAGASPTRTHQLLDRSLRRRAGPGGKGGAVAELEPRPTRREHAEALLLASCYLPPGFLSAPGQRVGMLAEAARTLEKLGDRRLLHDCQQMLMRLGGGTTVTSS

Variants of: B1
Details: with SREBF1, P36956-1

effect of a mutation on the interaction | Variant
disrupting interaction strength | L58D
disrupting interaction strength | A60D
disrupting interaction strength | E42A
